In the supplement of paper PMC7877785:
± gives the uncertainty stated by the source.

Assay: self-splicing fitness, log relative to wild type (ln ratio); higher = more splicing; Tetrahymena group I intron in knt gene, E. coli kanamycin selection, DiMSum; sequences stand for … in CUCUCU…GGAGGGAAAAGUUAUCAGGCAUGCACCUGGUAGCUAGUCUUUAAACCAAUAGAUUGCAUCGGUUUAAAAGGCAAGACCGUCAAAUUGCGGGAAAGGGGUCAACAGCCGUUCAGUACCAAGUCUCAGGGGAAACUUUGAGAUGGCCUUGCAAAGGGUAUGGUAAUAAGCUGACGGACAUGGUCCUAACCACGCAGCCAAGUCCUAAGUCAACAGAUCUUCUGUUGAUAUGGAUGCAGUUCACAGACUAAAUGUCGGUCGGGGAAGAUGUAUUCUUCUCAUAAGAUAUAGUCGGACCUCUCCUUAAUGGGAGCUAGCGGAUGAAGUGAUGCAACACUGGAGCCGCUGGGAACUAAUUUGUAUGCGAAAGUAUAUUGAUUAGUUUUGGAGUACUCGUGGUCG
In short: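 Pooled colonies went to amplicon sequencing on an Illumina HiSeq 2500 after six replicate transformations. The plates were LB agar with 100 μg/mL carbenicillin, 50 μM IPTG and 0.2% rhamnose, with or without 25 μg/mL kanamycin, incubated overnight at 37°C or 30°C. The E. coli BL21(DE3) library had all eight P1ex-region intron nucleotides randomised, the intron placed in the knt kanamycin-resistance gene on pET-22b(+). DiMSum fitness is the error-weighted combination of replicate fold changes, kanamycin against none, normalised to wild type.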

| Sequence | self-splicing fitness (ln) (30 °C) | self-splicing fitness (ln) (37 °C) |
| --- | --- | --- |
| UUAAAGCAAUAUUACGUGGA | -2.45 ± 0.072 | -0.864 ± 0.073 |
| UAGGAGCAAUAUUACGACGG | -2.88 ± 0.13 | -0.471 ± 0.12 |
| GCGCAGCAAUAUUACGGGUC | -2.71 ± 0.11 | -0.449 ± 0.092 |
| UUCUAGCAAUAUUACGCACG | -1.26 ± 0.26 | -0.399 ± 0.3 |
| CGCAAGCAAUAUUACGGAGG | -1.02 ± 0.057 | -0.818 ± 0.072 |
| AUAAAGCAAUAUUACGCCGU | 0.151 ± 0.11 | -0.694 ± 0.12 |
| AUUGAGCAAUAUUACGAUAC | -3.01 ± 0.42 | -1.65 ± 0.34 |
| GGCUAGCAAUAUUACGGGUU | -1.9 ± 0.096 | -0.879 ± 0.09 |
| CACUAGCAAUAUUACGUGGU | -3.41 ± 0.15 | -2.88 ± 0.17 |
| GGUGAGCAAUAUUACGCGUU | -2.61 ± 0.15 | -0.173 ± 0.16 |
| GUCCAGCAAUAUUACGUCUU | -0.409 ± 0.081 | 0.275 ± 0.092 |
| AUGUAGCAAUAUUACGCCGU | -1.43 ± 0.14 | -0.29 ± 0.14 |
| CUGCAGCAAUAUUACGCUUA | -3.04 ± 0.29 | -3.98 ± 0.46 |
| UCUUAGCAAUAUUACGUCGU | -2.2 ± 0.12 | -1.92 ± 0.12 |
| GAGUAGCAAUAUUACGUACA | -0.962 ± 0.2 | -0.303 ± 0.18 |
| AUGAAGCAAUAUUACGUCCC | 0.721 ± 0.15 | -0.534 ± 0.14 |
| UGACAGCAAUAUUACGGUUC | -2.92 ± 0.11 | -1.79 ± 0.085 |
| ACGUAGCAAUAUUACGAUCU | -0.0721 ± 0.051 | 0.356 ± 0.065 |
| CAUCAGCAAUAUUACGCCAA | -1.99 ± 0.25 | -1.81 ± 0.24 |
| CCAUAGCAAUAUUACGGUAU | -3.54 ± 0.24 | -1.34 ± 0.19 |
| AUUGAGCAAUAUUACGGAUC | -4.03 ± 0.47 | -2.65 ± 0.38 |
| ACUCAGCAAUAUUACGGAUC | -1.46 ± 0.1 | -0.352 ± 0.11 |
| ACAGAGCAAUAUUACGCAUU | -4.18 ± 0.27 | -2.99 ± 0.31 |
| GGGGAGCAAUAUUACGGGCC |  | -1.4 ± 0.28 |
| AGUGAGCAAUAUUACGAGCU | -2.44 ± 0.23 | -1.07 ± 0.5 |
| UCCUAGCAAUAUUACGUGCG | -3.5 ± 0.2 | -1.98 ± 0.16 |
| CACCAGCAAUAUUACGGUAC | -3.11 ± 0.11 | -2.13 ± 0.1 |

| Sequence | self-splicing fitness (ln) (30 °C) | self-splicing fitness (ln) (37 °C) |
| --- | --- | --- |
| UCGCAGCAAUAUUACGCUCG | -3.23 ± 0.28 | -1.61 ± 0.2 |
| UGCUAGCAAUAUUACGAGAC | -3.12 ± 0.35 | -2.11 ± 0.36 |
| AUGCAGCAAUAUUACGAGGC | -1.94 ± 0.23 | -2.34 ± 0.33 |
| GGAAAGCAAUAUUACGGUAC | -0.689 ± 0.13 | -1.36 ± 0.19 |
| AUGUAGCAAUAUUACGGUAU | -1.24 ± 0.093 | -0.0188 ± 0.11 |
| CGACAGCAAUAUUACGUGGA | -3.38 ± 0.17 | -3.17 ± 0.18 |
| UUCUAGCAAUAUUACGCCAC |  | -2.02 ± 0.46 |
| ACUGAGCAAUAUUACGGAAC |  | -1.92 ± 0.29 |
| UCGAAGCAAUAUUACGGACG | -0.371 ± 0.13 | 0.158 ± 0.12 |
| UCUGAGCAAUAUUACGUCAC |  | -2.32 ± 0.45 |
| UGCUAGCAAUAUUACGUGAC | -3.39 ± 0.35 | -2.56 ± 0.41 |
| UGCAAGCAAUAUUACGCAAC | -1.9 ± 0.26 | -2.11 ± 0.28 |
| UUGUAGCAAUAUUACGCAGG | -1.6 ± 0.24 | 0.28 ± 0.17 |
| CAAGAGCAAUAUUACGCAGU | -4 ± 0.46 |  |
| GCCCAGCAAUAUUACGGACG | -0.702 ± 0.07 | -0.133 ± 0.097 |
| AAACAGCAAUAUUACGCUAG | -1.39 ± 0.095 | -1.12 ± 0.13 |
| CCAAAGCAAUAUUACGCGCG | -1.59 ± 0.075 | -0.994 ± 0.1 |
| UGAUAGCAAUAUUACGAGUC | -3.08 ± 0.22 | -3.08 ± 0.4 |
| UUGAAGCAAUAUUACGUGGU | -3.78 ± 0.25 | -2.94 ± 0.34 |
| GGGCAGCAAUAUUACGUCCU |  | -3.02 ± 0.32 |
| AAUGAGCAAUAUUACGGACU | -1.59 ± 0.13 | -2.04 ± 0.19 |
| GGUCAGCAAUAUUACGGUUA | -0.399 ± 0.081 | 0.53 ± 0.076 |
| UGCGAGCAAUAUUACGACUC | -2.71 ± 0.27 | -2.25 ± 0.25 |
| GUGGAGCAAUAUUACGUGGA | -2.92 ± 0.28 | -3.07 ± 0.36 |
| UUAUAGCAAUAUUACGUCAG | -1.61 ± 0.13 | -0.818 ± 0.12 |
| GCCUAGCAAUAUUACGCUCC | -1.64 ± 0.28 | 0.265 ± 0.2 |
| AGACAGCAAUAUUACGACCC | -0.868 ± 0.29 | -0.564 ± 0.3 |

| Sequence | self-splicing fitness (ln) (30 °C) | self-splicing fitness (ln) (37 °C) |
| --- | --- | --- |
| UGGGAGCAAUAUUACGGUGG | -2.67 ± 0.46 |  |
| CCGAAGCAAUAUUACGGCCA | -2.76 ± 0.17 | -2.3 ± 0.18 |
| UCAUAGCAAUAUUACGCUCC | -2.92 ± 0.31 | -0.786 ± 0.27 |
| UGUAAGCAAUAUUACGUAGU | -3.01 ± 0.21 | -0.923 ± 0.18 |
| UUCGAGCAAUAUUACGAAGG | -2.09 ± 0.23 | -1.62 ± 0.27 |
| GGCAAGCAAUAUUACGGGAC | -2.46 ± 0.13 | -0.918 ± 0.1 |
| GCGGAGCAAUAUUACGGCUC | -2.05 ± 0.36 |  |
| CUACAGCAAUAUUACGUACU | -3.15 ± 0.14 | -1.05 ± 0.15 |
| GAAAAGCAAUAUUACGGGUU | -1.27 ± 0.095 | -1.22 ± 0.12 |
| GCUAAGCAAUAUUACGUCGG | -1.33 ± 0.099 | -0.876 ± 0.13 |
| CCUUAGCAAUAUUACGUCAU | -3.85 ± 0.21 | -2.96 ± 0.24 |
| GGAAAGCAAUAUUACGUAAG | -1.87 ± 0.13 | -1.18 ± 0.15 |
| CGGUAGCAAUAUUACGUGAU | -1.49 ± 0.14 | -0.851 ± 0.18 |
| GGAUAGCAAUAUUACGGAAC | -1.9 ± 0.22 | -2.03 ± 0.29 |
| AUUGAGCAAUAUUACGUGAU | -1.58 ± 0.14 | -2.17 ± 0.22 |
| CUGAAGCAAUAUUACGGCCC | -1.58 ± 0.48 |  |
| UCUGAGCAAUAUUACGUAGU | -2.3 ± 0.11 | -0.756 ± 0.13 |
| AUGUAGCAAUAUUACGCUUC | -2.5 ± 0.23 | -2.2 ± 0.28 |
| AGUUAGCAAUAUUACGUCGG | -3.45 ± 0.23 | -1.67 ± 0.16 |
| GUCUAGCAAUAUUACGGGCU | -3.5 ± 0.27 | -3.73 ± 0.3 |
| UAGAAGCAAUAUUACGUAUG | -1.01 ± 0.07 | -1.14 ± 0.11 |
| AAUUAGCAAUAUUACGGUCU | -0.43 ± 0.085 | 0.202 ± 0.099 |
| AGACAGCAAUAUUACGUUGG | -1.95 ± 0.094 | -1.99 ± 0.14 |
| UUCAAGCAAUAUUACGAAAG | -3.65 ± 0.24 | -2.39 ± 0.28 |
| ACGGAGCAAUAUUACGACGA | -1.49 ± 0.1 | -0.442 ± 0.13 |
